Data reported in patent US20130004519A1 (published 2013).

B1: Phosphoglycerate kinase 1 (enzyme, human, UniProt P00558 2-417, looked up)
chain: SLSNKLTLDKLDVKGKRVVMRVDFNVPMKNNQITNNQRIKAAVPSIKFCLDNGAKSVVLMSHLGRPDGVPMPDKYSLEPVAVELKSLLGKDVLFLKDCVGPEVEKACANPAAGSVILLENLRFHVEEEGKGKDASGNKVKAEPAKIEAFRASLSKLGDVYVNDAFGTAHRAHSSMVGVNLPQKAGGFLMKKELNYFAKALESPERPFLAILGGAKVADKIQLINNMLDKVNEMIIGGGMAFTFLKVLNNMEIGTSLFDEEGAKIVKDLMSKAEKNGVKITLPVDFVTADKFDENAKTGQATVASGIPAGWMGLDCGPESSKKYAEAVTRAKQIVWNGPVGVFEWEAFARGTKALMDEVVKATSRGCITIIGGGDTATCCAKWNTEDKVSHVSTGGGASLELLEGKVLPGVDALSNI
notes: also called PGK1
B2: Nidogen-2 (other, human, UniProt Q14112 31-1375, looked up)
chain: LHPDELFPHGESWGDQLLQEGDDESSAVVKLANPLHFYEARFSNLYVGTNGIISTQDFPRETQYVDYDFPTDFPAIAPFLADIDTSHGRGRVLYREDTSPAVLGLAARYVRAGFPRSARFTPTHAFLATWEQVGAYEEVKRGALPSGELNTFQAVLASDGSDSYALFLYPANGLQFLGTRPKESYNVQLQLPARVGFCRGEADDLKSEGPYFSLTSTEQSVKNLYQLSNLGIPGVWAFHIGSTSPLDNVRPAAVGDLSAAHSSVPLGRSFSHATALESDYNEDNLDYYDVNEEEAEYLPGEPEEALNGHSSIDVSFQSKVDTKPLEESSTLDPHTKEGTSLGEVGGPDLKGQVEPWDERETRSPAPPEVDRDSLAPSWETPPPYPENGSIQPYPDGGPVPSEMDVPPAHPEEEIVLRSYPASGHTTPLSRGTYEVGLEDNIGSNTEVFTYNAANKETCEHNHRQCSRHAFCTDYATGFCCHCQSKFYGNGKHCLPEGAPHRVNGKVSGHLHVGHTPVHFTDVDLHAYIVGNDGRAYTAISHIPQPAAQALLPLTPIGGLFGWLFALEKPGSENGFSLAGAAFTHDMEVTFYPGEETVRITQTAEGLDPENYLSIKTNIQGQVPYVSANFTAHISPYKELYHYSDSTVTSTSSRDYSLTFGAINQTWSYRIHQNITYQVCRHAPRHPSFPTTQQLNVDRVFALYNDEERVLRFAVTNQIGPVKEDSDPTPGNPCYDGSHMCDTTARCHPGTGVDYTCECASGYQGDGRNCVDENECATGFHRCGPNSVCINLPGSYRCECRSGYEFADDRHTCILITPPANPCEDGSHTCAPAGQARCVHHGGSTFSCACLPGYAGDGHQCTDVDECSENRCHPAATCYNTPGSFSCRCQPGYYGDGFQCIPDSTSSLTPCEQQQRHAQAQYAYPGARFHIPQCDEQGNFLPLQCHGSTGFCWCVDPDGHEVPGTQTPPGSTPPHCGPSPEPTQRPPTICERWRENLLEHYGGTPRDDQYVPQCDDLGHFIPLQCHGKSDFCWCVDKDGREVQGTRSQPGTTPACIPTVAPPMVRPTPRPDVTPPSVGTFLLYTQGQQIGYLPLNGTRLQKDAAKTLLSLHGSIIVGIDYDCRERMVYWTDVAGRTISRAGLELGAEPETIVNSGLISPEGLAIDHIRRTMYWTDSVLDKIESALLDGSERKVLFYTDLVNPRAIAVDPIRGNLYWTDWNREAPKIETSSLDGENRRILINTDIGLPNGLTFDPFSKLLCWADAGTKKLECTLPDGTGRRVIQNNLKYPFSIVSYADHFYHTDWRRDGVVSVNKHSGQFTDEYLPEQRSHLYGITAVYPYCPTGRK
notes: also called NID2
B3: human recombinant SMOC1 (soluble analyte in surface plasmon resonance) (other, UniProt Q9H4F8 27-434, looked up)
chain: HRTTGPRFLISDRDPQCNLHCSRTQPKPICASDGRSYESMCEYQRAKCRDPTLGVVHRGRCKDAGQSKCRLERAQALEQAKKPQEAVFVPECGEDGSFTQVQCHTYTGYCWCVTPDGKPISGSSVQNKTPVCSGSVTDKPLSQGNSGRKDDGSKPTPTMETQPVFDGDEITAPTLWIKHLVIKDSKLNNTNIRNSEKVYSCDQERQSALEEAQQNPREGIVIPECAPGGLYKPVQCHQSTGYCWCVLVDTGRPLPGTSTRYVMPSCESDARAKTTEADDPFKDRELPGCPEGKKMEFITSLLDALTTDMVQAINSAAPTGGGRFSEPDPSHTLEERVVHWYFSQLDSNSSNDINKREMKPFKRYVKKKAKPKKCARRFTDYCDLNKDKVISLPELKGCLGVSKEGRLV
notes: mature; also called hSMOC1; not shown: C-terminal tag: either 6 histidines alone (SMOC1-his) or myc-DDK plus 6 histidines
B4: SPARC-related modular calcium-binding protein 1 (SMOC1) from HEK293 conditioned medium (other, human, UniProt Q9H4F8 27-434, looked up)
chain: B3 chain
notes: Endogenous protein pulled down from medium

How the values were obtained:
[1] = target: T1, horse fibronectin coupled to CNBr-activated Sepharose 4B (horse, UniProt Q28377 32-2477, limits assumed); assay: pull-down from HEK293 conditioned medium on horse fibronectin-Sepharose 4B, nanoLC-MSMS
T1 construct: Second control column of the pull-down; also called fibronectin column; FN-column

[2] = target: T2, His-tagged human tenascin-C (human, UniProt P24821 23-2201); assay: SPR (Biacore 2000), tenascin-C-his on CM5 chip, SMOC1 as analyte 3-300 nM, Langmuir 1:1 model, apparent KD
T2 construct: mature; The same construct was coupled to Sepharose 4B, coupled to the CM5 chip and expressed in COS cells for co-immunoprecipitation; also called TNC; hTNC; not shown: His tag
Experimental: Surface Plasmon Resonance Spectroscopy. Surface plasmon resonance spectroscopy was performed using a Biacore 2000 (BIAcore AB) system. Purified human tenascin-his protein was coupled in 25 mM sodium acetate pH 5 with a flow rate of 5 μl/min to a CM5 chip beforehand activated with N-hydroxysuccinimide and 1-ethyl-3-(3-dimethylaminopropyl)carbodiimide hydrochloride. Unbound reactive groups were then saturated with 1 M ethanolamine hydrochloride, pH 8.5. Experiments were carried out using increasing concentrations (3, 10, 30, 100 and 300 nM) of SMOC1 diluted in running buffer (pH 7.4, 20 mM Hepes, 150 mM NaCl, 2 mM CaCl2, 0.005% P20). The analyte was passed over the sensor chip with a constant flow rate of 25 μl/min for 240 s, and dissociation was measured over 500 s. Fittings of the data, overlay plots, and calculation of KD values were done with BIAevaluation software 4.1.
Interaction between tenascin-C and SMOC1 by Surface Plasmon Resonance Spectroscopy. In order to firmly establish binding between SMOC1 and tenascin-C, the present inventors performed Surface Plasmon Resonance Spectroscopy. Purified his-tagged tenascin-C was coupled to a CM5 chip and SMOC1 were tested as soluble analyte at increasing concentrations. Associations and dissociations of the obtained binding curves were analyzed in a Langmuir 1:1 binding model. […]

[3] = target: T2, His-tagged human tenascin-C; assay: pull-down on tenascin-C-Sepharose 4B, multiple reaction monitoring

T1 sequence (Q28377 32-2477 limits assumed): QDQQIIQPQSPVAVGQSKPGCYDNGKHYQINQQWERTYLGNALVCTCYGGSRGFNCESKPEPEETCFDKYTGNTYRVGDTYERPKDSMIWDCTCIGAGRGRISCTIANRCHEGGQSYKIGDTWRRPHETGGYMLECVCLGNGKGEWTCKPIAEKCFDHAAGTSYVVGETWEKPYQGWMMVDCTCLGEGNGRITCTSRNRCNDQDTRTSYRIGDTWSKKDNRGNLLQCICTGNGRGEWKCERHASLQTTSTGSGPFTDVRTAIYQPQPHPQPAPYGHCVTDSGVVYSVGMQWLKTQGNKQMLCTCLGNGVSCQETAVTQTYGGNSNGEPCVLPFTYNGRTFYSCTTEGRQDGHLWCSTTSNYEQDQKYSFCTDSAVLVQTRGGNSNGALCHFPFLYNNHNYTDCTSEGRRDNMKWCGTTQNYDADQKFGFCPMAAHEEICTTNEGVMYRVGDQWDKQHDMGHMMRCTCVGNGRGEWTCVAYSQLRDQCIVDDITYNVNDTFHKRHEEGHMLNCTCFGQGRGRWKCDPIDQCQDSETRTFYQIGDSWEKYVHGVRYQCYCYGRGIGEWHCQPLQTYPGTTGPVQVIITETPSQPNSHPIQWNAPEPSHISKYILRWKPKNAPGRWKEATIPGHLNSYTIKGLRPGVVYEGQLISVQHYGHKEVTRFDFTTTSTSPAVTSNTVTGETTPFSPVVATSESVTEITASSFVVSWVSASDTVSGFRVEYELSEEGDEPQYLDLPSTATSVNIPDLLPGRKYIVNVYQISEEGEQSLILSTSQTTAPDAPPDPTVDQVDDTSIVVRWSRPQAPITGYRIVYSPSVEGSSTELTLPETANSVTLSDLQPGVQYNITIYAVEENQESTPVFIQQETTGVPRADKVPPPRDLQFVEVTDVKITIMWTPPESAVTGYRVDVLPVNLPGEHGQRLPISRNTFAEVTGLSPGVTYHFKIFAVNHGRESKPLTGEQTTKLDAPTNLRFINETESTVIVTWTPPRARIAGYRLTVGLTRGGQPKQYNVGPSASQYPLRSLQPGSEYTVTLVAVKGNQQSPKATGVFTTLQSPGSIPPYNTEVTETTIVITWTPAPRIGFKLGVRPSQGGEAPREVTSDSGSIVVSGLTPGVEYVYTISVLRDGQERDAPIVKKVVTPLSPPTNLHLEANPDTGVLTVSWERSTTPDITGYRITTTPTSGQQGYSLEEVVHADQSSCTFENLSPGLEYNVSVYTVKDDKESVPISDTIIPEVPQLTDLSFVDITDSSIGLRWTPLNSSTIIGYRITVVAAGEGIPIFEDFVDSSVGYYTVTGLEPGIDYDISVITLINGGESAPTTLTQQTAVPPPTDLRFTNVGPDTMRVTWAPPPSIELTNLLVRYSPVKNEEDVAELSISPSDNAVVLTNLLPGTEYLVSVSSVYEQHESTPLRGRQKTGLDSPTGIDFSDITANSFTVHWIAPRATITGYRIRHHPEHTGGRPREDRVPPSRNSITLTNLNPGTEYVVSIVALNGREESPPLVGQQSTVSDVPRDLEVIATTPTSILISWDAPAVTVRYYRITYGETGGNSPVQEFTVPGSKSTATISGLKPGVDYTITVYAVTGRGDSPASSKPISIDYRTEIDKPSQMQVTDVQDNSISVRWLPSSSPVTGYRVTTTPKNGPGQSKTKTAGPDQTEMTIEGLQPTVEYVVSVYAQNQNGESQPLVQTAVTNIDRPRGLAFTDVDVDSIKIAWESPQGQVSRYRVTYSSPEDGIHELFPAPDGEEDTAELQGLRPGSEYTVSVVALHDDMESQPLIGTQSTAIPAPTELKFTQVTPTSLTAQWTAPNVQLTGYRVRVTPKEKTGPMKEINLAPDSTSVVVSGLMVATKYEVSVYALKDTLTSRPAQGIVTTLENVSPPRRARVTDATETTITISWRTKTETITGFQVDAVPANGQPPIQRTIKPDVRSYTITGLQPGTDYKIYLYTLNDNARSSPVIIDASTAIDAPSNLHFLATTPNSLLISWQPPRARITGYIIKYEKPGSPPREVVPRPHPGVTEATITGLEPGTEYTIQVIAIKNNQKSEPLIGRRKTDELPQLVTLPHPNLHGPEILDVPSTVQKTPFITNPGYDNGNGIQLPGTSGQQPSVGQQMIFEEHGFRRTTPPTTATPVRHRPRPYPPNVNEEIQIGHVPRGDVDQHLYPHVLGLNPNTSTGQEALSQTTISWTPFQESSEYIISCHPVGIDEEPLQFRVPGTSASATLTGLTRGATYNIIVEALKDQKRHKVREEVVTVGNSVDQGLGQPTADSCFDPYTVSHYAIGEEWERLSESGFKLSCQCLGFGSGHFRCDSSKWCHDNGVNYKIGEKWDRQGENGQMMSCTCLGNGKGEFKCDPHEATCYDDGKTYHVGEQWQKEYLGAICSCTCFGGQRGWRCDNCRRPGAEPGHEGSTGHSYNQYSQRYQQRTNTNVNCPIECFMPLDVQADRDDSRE
T2 sequence (P24821 23-2201): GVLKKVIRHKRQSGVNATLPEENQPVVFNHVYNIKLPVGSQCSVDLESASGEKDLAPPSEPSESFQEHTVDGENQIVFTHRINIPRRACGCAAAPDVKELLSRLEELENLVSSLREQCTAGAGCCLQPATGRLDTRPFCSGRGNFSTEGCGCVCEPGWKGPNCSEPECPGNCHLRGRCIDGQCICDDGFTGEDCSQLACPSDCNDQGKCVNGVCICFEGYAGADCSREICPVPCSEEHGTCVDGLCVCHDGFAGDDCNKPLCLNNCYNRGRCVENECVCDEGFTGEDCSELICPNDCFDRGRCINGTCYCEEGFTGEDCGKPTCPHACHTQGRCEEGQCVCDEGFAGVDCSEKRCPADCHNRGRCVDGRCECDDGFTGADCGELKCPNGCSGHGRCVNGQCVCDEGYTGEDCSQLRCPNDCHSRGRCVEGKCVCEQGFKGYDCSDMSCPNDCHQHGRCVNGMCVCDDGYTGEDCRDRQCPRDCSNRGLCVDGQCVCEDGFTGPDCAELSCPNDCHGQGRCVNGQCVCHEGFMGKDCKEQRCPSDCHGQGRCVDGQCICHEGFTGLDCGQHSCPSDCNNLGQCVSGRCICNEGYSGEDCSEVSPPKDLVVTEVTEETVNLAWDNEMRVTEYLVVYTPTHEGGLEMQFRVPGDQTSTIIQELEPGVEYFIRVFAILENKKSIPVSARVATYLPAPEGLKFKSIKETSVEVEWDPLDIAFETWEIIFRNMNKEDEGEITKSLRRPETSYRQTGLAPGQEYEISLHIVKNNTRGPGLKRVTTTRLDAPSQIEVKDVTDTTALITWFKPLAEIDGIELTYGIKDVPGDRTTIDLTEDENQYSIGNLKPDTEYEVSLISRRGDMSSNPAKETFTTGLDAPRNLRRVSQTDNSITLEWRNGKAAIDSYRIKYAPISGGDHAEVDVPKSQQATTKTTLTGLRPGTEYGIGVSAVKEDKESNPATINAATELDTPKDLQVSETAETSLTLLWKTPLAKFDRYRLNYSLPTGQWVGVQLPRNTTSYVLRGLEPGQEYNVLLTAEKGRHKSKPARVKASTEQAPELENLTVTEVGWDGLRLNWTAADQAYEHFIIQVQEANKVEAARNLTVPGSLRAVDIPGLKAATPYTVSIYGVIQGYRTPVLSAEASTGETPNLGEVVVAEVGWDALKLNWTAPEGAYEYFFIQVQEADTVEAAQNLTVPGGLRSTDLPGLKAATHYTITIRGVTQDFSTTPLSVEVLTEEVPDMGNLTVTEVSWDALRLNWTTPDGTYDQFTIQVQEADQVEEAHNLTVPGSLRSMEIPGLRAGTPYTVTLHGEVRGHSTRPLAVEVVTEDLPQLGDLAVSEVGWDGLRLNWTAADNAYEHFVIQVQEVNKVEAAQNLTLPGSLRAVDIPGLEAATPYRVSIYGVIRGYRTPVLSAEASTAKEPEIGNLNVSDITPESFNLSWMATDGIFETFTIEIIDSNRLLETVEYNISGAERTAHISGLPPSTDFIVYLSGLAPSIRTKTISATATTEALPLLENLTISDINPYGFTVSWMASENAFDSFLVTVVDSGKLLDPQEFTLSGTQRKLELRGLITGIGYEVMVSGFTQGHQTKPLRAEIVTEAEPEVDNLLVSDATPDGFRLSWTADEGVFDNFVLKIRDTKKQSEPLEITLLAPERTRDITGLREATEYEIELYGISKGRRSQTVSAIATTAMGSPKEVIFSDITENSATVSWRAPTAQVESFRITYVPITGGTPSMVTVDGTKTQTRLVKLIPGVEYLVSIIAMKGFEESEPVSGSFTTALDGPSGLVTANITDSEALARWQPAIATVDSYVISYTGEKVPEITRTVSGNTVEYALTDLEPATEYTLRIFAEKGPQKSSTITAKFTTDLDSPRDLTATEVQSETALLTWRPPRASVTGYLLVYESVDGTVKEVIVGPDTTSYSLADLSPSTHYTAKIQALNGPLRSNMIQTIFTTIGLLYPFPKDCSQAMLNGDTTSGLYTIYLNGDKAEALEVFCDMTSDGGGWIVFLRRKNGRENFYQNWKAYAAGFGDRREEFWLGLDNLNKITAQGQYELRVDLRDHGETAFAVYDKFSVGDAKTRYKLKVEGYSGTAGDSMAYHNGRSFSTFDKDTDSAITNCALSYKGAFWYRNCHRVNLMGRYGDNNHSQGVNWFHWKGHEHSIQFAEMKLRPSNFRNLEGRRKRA

Row | MASCOT Score (fibronectin) [1] | spectrum count (fibronectin) [1] | Kd [2] [nM] | normalized enrichment (MRM), tenascin-C against control [3] [fold] | Binder
1 | 100 | 6 | – | – | B1
2 | 0 | 0 | – | – | B2
3 | – | – | 2.2 | – | B3
4 | 0 | 0 | – | 4.5 | B4
